Earlier results in PMC10871162.
Where two headings read alike, the source gives them in different places. Blank lines part the entries; values can stand above or below the substance they belong to.

Legend:
[1] = target: RyR peptide RyR peptide (Homo sapiens) (UniProt P21817)
RIIβ peptide = RIIβ peptide (UniProt P31323)
[2] = target: TRTK-12 (CapZ peptide) (Homo sapiens) (UniProt P52907)
RyR peptide = RyR peptide (UniProt P21817)
[3] = target: nonmuscle myosin IIA mysIIA peptide (Homo sapiens) (UniProt P35579)
[4] = target: myosin IIA peptide (Homo sapiens) (UniProt P35579)
[5] = target: TRTK-12 (CapZ peptide) (Homo sapiens) (UniProt P52907); remark: listed apart in the source

Chain of UniProt P21817 (P21817 whole entry): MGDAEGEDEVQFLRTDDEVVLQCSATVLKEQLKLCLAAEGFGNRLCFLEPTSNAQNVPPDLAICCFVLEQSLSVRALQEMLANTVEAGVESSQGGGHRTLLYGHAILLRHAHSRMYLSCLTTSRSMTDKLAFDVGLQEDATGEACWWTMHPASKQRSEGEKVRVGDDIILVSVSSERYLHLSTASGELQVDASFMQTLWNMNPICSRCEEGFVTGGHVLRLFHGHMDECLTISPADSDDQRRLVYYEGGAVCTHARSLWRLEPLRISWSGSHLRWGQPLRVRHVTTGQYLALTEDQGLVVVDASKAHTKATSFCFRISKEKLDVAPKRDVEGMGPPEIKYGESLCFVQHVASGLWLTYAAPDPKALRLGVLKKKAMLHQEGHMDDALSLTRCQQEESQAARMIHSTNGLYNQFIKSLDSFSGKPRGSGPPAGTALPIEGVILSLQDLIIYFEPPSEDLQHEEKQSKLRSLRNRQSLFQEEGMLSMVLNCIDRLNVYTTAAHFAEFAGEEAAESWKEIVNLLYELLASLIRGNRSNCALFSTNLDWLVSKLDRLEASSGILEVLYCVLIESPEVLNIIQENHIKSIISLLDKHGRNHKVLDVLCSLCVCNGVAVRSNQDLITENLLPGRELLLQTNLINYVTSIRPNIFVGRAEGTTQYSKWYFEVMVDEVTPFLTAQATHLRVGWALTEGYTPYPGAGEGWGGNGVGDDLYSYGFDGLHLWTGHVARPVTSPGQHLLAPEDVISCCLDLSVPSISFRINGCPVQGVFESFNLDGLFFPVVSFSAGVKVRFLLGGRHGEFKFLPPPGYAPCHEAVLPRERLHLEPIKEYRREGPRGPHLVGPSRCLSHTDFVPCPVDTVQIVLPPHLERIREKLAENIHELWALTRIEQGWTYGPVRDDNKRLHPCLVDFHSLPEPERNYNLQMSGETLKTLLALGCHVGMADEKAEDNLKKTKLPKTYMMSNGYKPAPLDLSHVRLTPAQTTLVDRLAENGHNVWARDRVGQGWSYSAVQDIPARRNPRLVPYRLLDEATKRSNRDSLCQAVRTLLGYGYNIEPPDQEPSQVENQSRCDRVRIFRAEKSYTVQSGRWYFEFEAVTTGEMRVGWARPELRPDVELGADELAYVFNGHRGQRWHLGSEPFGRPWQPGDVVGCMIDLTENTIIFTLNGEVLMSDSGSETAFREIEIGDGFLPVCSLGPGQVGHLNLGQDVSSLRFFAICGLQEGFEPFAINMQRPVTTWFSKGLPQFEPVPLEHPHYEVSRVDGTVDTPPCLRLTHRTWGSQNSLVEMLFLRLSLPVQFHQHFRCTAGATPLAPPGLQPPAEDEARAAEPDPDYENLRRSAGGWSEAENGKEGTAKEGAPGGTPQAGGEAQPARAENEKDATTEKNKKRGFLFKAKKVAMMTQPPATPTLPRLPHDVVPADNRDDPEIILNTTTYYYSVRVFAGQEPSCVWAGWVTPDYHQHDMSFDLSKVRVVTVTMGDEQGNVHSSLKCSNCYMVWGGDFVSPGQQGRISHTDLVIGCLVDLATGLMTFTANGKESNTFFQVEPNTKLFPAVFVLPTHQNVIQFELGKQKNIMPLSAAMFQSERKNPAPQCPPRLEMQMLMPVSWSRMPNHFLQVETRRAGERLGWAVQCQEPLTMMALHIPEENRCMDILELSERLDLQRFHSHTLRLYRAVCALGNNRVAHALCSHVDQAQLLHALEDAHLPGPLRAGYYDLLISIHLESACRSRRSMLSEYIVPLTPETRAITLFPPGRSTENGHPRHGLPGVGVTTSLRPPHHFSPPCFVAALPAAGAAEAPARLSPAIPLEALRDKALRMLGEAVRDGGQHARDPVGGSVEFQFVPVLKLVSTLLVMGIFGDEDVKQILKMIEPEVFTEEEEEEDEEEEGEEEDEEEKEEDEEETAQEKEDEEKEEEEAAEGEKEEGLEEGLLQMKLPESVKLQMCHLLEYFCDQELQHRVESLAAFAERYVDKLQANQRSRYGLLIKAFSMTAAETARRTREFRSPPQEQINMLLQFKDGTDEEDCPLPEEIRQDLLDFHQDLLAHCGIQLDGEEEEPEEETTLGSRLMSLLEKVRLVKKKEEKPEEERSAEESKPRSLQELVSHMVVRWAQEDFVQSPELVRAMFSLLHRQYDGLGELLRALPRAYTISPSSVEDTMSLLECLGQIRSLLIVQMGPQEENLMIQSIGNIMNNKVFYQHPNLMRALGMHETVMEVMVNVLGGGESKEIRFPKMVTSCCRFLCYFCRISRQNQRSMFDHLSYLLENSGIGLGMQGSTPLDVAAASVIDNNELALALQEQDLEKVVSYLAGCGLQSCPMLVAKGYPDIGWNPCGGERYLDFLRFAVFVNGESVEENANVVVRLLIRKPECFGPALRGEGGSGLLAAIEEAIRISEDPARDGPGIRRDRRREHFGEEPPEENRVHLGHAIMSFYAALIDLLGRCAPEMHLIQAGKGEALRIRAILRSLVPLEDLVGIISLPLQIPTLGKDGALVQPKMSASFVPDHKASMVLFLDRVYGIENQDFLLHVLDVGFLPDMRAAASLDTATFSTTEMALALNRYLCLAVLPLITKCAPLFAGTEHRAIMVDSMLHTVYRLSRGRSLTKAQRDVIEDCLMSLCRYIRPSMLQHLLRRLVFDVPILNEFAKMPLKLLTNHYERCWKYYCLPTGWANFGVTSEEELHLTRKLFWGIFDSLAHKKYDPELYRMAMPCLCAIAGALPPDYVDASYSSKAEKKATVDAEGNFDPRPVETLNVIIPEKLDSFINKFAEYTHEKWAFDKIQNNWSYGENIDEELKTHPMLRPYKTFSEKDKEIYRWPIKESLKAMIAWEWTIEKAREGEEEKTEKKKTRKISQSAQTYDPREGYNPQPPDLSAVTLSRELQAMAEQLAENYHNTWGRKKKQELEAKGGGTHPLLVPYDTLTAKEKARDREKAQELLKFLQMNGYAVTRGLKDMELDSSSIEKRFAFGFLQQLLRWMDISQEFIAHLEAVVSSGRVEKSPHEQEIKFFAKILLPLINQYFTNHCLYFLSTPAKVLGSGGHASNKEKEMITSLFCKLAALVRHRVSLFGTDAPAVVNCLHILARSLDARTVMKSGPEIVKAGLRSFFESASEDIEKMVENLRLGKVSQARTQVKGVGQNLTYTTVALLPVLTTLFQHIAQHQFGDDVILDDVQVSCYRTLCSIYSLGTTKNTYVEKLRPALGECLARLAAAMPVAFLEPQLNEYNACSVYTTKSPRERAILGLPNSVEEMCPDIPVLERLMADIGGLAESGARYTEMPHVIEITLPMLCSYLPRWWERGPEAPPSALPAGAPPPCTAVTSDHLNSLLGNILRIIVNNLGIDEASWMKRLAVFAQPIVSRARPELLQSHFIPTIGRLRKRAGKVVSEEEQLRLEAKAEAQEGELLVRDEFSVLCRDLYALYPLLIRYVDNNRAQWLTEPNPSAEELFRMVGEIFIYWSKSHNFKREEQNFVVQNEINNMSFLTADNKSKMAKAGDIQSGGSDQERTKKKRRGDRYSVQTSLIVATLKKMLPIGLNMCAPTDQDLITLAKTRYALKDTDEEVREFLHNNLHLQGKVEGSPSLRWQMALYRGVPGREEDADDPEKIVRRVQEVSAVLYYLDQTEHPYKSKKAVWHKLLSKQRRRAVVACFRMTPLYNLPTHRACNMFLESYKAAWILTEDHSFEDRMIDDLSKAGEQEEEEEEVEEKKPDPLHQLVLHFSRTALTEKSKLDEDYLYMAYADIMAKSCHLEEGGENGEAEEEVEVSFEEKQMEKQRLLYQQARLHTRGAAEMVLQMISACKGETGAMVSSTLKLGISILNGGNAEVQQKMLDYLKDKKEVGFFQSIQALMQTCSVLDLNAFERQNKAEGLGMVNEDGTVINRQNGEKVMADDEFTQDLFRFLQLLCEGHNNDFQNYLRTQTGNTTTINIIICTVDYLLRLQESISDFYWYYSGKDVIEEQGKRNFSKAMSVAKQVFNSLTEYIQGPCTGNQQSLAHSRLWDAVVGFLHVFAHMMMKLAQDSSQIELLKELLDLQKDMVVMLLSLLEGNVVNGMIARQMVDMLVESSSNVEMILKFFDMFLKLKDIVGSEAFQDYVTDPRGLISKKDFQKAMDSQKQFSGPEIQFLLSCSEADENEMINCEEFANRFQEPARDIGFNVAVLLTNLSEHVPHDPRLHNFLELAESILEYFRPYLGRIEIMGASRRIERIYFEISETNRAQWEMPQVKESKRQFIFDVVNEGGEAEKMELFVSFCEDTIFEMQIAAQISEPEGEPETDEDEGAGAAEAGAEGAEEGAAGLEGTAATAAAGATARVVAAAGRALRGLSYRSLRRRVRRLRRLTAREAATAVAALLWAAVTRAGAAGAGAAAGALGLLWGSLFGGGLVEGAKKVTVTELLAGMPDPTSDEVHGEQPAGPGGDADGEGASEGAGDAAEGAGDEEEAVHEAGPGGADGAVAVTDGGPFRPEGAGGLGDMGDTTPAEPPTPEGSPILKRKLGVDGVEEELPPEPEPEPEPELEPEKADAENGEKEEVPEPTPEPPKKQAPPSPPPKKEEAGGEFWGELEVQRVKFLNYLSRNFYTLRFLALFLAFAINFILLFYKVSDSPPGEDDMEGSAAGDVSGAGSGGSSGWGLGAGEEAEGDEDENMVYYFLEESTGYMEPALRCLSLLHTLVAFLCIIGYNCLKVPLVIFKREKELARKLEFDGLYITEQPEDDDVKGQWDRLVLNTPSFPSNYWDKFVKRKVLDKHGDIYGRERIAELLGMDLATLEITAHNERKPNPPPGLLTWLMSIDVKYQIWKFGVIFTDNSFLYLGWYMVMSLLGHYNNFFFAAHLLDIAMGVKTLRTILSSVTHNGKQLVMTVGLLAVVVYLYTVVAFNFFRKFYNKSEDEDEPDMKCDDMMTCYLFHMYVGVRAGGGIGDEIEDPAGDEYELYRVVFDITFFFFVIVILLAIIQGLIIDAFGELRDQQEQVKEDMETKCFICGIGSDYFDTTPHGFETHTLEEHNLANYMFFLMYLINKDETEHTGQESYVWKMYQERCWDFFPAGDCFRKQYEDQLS

Kd [1]: 8 µM
Kd (RIIβ peptide): 2 µM
Kd [2]: 23 µM
Kd (RyR peptide): 8 µM
Substance: S100A1 (from UniProt P23297)

Kd [3]: < 0.001 µM
Kd [4]: < 0.001 µM
Substance: S100A4 (from UniProt P26447)

Kd [5]: 2.9 µM
Substance: S100B (from UniProt P04271)
